Test results published in the supplement of paper PMC9112550, “Optimization of the antimicrobial peptide Bac7 by deep mutational scanning” (BMC Biology, 2022).

system: Escherichia coli TOP10; test: shrunken log2 fold change of peptide-encoding DNA abundance (4.5 h post-induction vs induction); higher = less antimicrobial activity (less host growth inhibition); conditions: time post-induction: 4.5 h; library: site-saturation at positions 5, 18, 19, 20
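Further: peptides expressed intracellularly from a pBAD plasmid library in pooled LB shake-flask culture, induced with 0.3% L-arabinose, DNA abundance read by NGS, three biological replicates, DESeq2 with apeglm shrinkage.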

Row | Sequence | shrunken log2 fold change
1 | RRIRERPPRLPRPRPRPISSPRP | -0.403
2 | RRIRHRPPRLPRPRPRPFVHPRP | -0.836
3 | RRIRKRPPRLPRPRPRPWQGPRP | 0.0142
4 | RRIRVRPPRLPRPRPRPASWPRP | 0.294
5 | RRIRARPPRLPRPRPRPWRCPRP | 0.0472
6 | RRIRNRPPRLPRPRPRPLGVPRP | 0.129
7 | RRIRFRPPRLPRPRPRPPVMPRP | 0.0132
8 | RRIRDRPPRLPRPRPRPMCAPRP | 0.0829
9 | RRIRARPPRLPRPRPRPGEAPRP | 0.942
10 | RRIRPRPPRLPRPRPRPYGDPRP | -0.156
11 | RRIRTRPPRLPRPRPRPMHKPRP | -0.271
12 | RRIRHRPPRLPRPRPRPRGHPRP | -0.103
13 | RRIRGRPPRLPRPRPRPEDCPRP | 0.874
14 | RRIRNRPPRLPRPRPRPAERPRP | -0.117
15 | RRIRTRPPRLPRPRPRPSEKPRP | -0.0354
16 | RRIRKRPPRLPRPRPRPFQTPRP | 0.12
17 | RRIRGRPPRLPRPRPRPECFPRP | 1.92
18 | RRIRIRPPRLPRPRPRPLPMPRP | -0.204
19 | RRIRMRPPRLPRPRPRPCTYPRP | -0.00141
20 | RRIRQRPPRLPRPRPRPDHMPRP | 0.0119
21 | RRIRWRPPRLPRPRPRPQMGPRP | -0.124
22 | RRIRNRPPRLPRPRPRPCECPRP | 0.0219
23 | RRIRYRPPRLPRPRPRPHLPPRP | -0.542
24 | RRIRRRPPRLPRPRPRPKMIPRP | 0.103
25 | RRIRLRPPRLPRPRPRPECAPRP | 0.65

Row | Sequence | shrunken log2 fold change
26 | RRIRFRPPRLPRPRPRPRMCPRP | 0.0779
27 | RRIRTRPPRLPRPRPRPCKTPRP | -0.0173
28 | RRIRTRPPRLPRPRPRPEYVPRP | 0.0172
29 | RRIRIRPPRLPRPRPRPNAVPRP | -0.266
30 | RRIRYRPPRLPRPRPRPPYSPRP | -0.45
31 | RRIRFRPPRLPRPRPRPALIPRP | -0.00983
32 | RRIRDRPPRLPRPRPRPVFSPRP | 0.111
33 | RRIRTRPPRLPRPRPRPHKSPRP | 0.119
34 | RRIRKRPPRLPRPRPRPNCRPRP | 0.00408
35 | RRIRTRPPRLPRPRPRPVDAPRP | 0.188
36 | RRIRSRPPRLPRPRPRPWEPPRP | -0.029
37 | RRIRQRPPRLPRPRPRPHTPPRP | -0.147
38 | RRIRQRPPRLPRPRPRPDKIPRP | -0.00225
39 | RRIRDRPPRLPRPRPRPSVIPRP | 0.0683
40 | RRIRMRPPRLPRPRPRPPSEPRP | 0.962
41 | RRIRTRPPRLPRPRPRPPSMPRP | 0.13
42 | RRIRRRPPRLPRPRPRPFPYPRP | -0.28
43 | RRIRRRPPRLPRPRPRPISWPRP | -0.166
44 | RRIRMRPPRLPRPRPRPKGAPRP | 1.76
45 | RRIRWRPPRLPRPRPRPMCWPRP | 0.883
46 | RRIRTRPPRLPRPRPRPCNIPRP | 0.048
47 | RRIRCRPPRLPRPRPRPYEGPRP | -0.103
48 | RRIRCRPPRLPRPRPRPWDKPRP | -0.0809
49 | RRIRIRPPRLPRPRPRPVTYPRP | -0.275
50 | RRIRHRPPRLPRPRPRPCARPRP | -0.0479

Row | Sequence | shrunken log2 fold change
51 | RRIRWRPPRLPRPRPRPIIPPRP | -0.104
52 | RRIRSRPPRLPRPRPRPTVMPRP | 0.00504
53 | RRIRTRPPRLPRPRPRPCGPPRP | -0.0329
54 | RRIRMRPPRLPRPRPRPPHLPRP | 0.389
55 | RRIRKRPPRLPRPRPRPKTIPRP | 0.0745
56 | RRIRYRPPRLPRPRPRPLMPPRP | -0.931
57 | RRIRMRPPRLPRPRPRPVYSPRP | -0.248
58 | RRIRSRPPRLPRPRPRPCRVPRP | 0.11
59 | RRIRERPPRLPRPRPRPEFVPRP | 0.137
60 | RRIRGRPPRLPRPRPRPDFKPRP | 0.386
61 | RRIRERPPRLPRPRPRPKHKPRP | -0.344
62 | RRIRVRPPRLPRPRPRPFAVPRP | -0.00738
63 | RRIRDRPPRLPRPRPRPNVEPRP | 0.119
64 | RRIRTRPPRLPRPRPRPVNMPRP | -0.192
65 | RRIRPRPPRLPRPRPRPWWCPRP | -0.258
66 | RRIRDRPPRLPRPRPRPTAEPRP | 1.4
67 | RRIRRRPPRLPRPRPRPDACPRP | 0.00716
68 | RRIRIRPPRLPRPRPRPAVLPRP | 0.0102
69 | RRIRHRPPRLPRPRPRPCWVPRP | -0.0013
70 | RRIRSRPPRLPRPRPRPHSWPRP | 0.122
71 | RRIRNRPPRLPRPRPRPMSAPRP | 0.0853
72 | RRIRKRPPRLPRPRPRPNSPPRP | -0.027
73 | RRIRCRPPRLPRPRPRPMDRPRP | -0.0115
74 | RRIRKRPPRLPRPRPRPGLCPRP | 0.168
75 | RRIRARPPRLPRPRPRPLWLPRP | 0.302

Row | Sequence | shrunken log2 fold change
76 | RRIRRRPPRLPRPRPRPVKCPRP | 0.23
77 | RRIRERPPRLPRPRPRPAFYPRP | -0.32
78 | RRIRDRPPRLPRPRPRPRMNPRP | -0.168
79 | RRIRQRPPRLPRPRPRPVMMPRP | -0.335
80 | RRIRFRPPRLPRPRPRPEDRPRP | 0.045
81 | RRIRRRPPRLPRPRPRPNPNPRP | 0.369
82 | RRIRFRPPRLPRPRPRPSTNPRP | -0.147
83 | RRIRQRPPRLPRPRPRPRYCPRP | -0.143
84 | RRIRPRPPRLPRPRPRPGPYPRP | -0.0184
85 | RRIRHRPPRLPRPRPRPHRGPRP | -0.0108
86 | RRIRVRPPRLPRPRPRPMEAPRP | 0.0665
87 | RRIRCRPPRLPRPRPRPCEYPRP | -0.163
88 | RRIRNRPPRLPRPRPRPIVAPRP | -0.367
89 | RRIRDRPPRLPRPRPRPFYNPRP | -0.732
90 | RRIRCRPPRLPRPRPRPQIQPRP | -0.288
91 | RRIRFRPPRLPRPRPRPDVTPRP | -0.302
92 | RRIRHRPPRLPRPRPRPMHQPRP | -0.108
93 | RRIRWRPPRLPRPRPRPLQWPRP | 0.346
94 | RRIRVRPPRLPRPRPRPHQKPRP | 0.375
95 | RRIRMRPPRLPRPRPRPRVAPRP | 0.699
96 | RRIRQRPPRLPRPRPRPEYIPRP | -0.00306
97 | RRIRLRPPRLPRPRPRPRFLPRP | -0.144
98 | RRIRRRPPRLPRPRPRPKGVPRP | 0.401
99 | RRIRGRPPRLPRPRPRPQPSPRP | 0.65
100 | RRIRHRPPRLPRPRPRPSPPPRP | -0.0717

Row | Sequence | shrunken log2 fold change
101 | RRIRARPPRLPRPRPRPDIMPRP | 0.0619
102 | RRIRQRPPRLPRPRPRPRIGPRP | 0.341
103 | RRIRARPPRLPRPRPRPGYHPRP | -0.14
104 | RRIRWRPPRLPRPRPRPNHFPRP | -0.429
105 | RRIRQRPPRLPRPRPRPLYTPRP | -0.671
106 | RRIRIRPPRLPRPRPRPHPEPRP | -0.023
107 | RRIRWRPPRLPRPRPRPPLMPRP | 0.213
108 | RRIRKRPPRLPRPRPRPPHNPRP | 0.465
109 | RRIRFRPPRLPRPRPRPCDSPRP | -0.0928
110 | RRIRERPPRLPRPRPRPLQHPRP | 0.159
111 | RRIRNRPPRLPRPRPRPELGPRP | 0.193
112 | RRIRSRPPRLPRPRPRPQWMPRP | -0.155
113 | RRIRRRPPRLPRPRPRPMLNPRP | -0.157
114 | RRIRNRPPRLPRPRPRPNKDPRP | -0.0478
115 | RRIRNRPPRLPRPRPRPTDLPRP | -0.228
116 | RRIRRRPPRLPRPRPRPYNDPRP | -0.176
117 | RRIRNRPPRLPRPRPRPAAFPRP | -0.0633
118 | RRIRTRPPRLPRPRPRPQTAPRP | -0.0946
119 | RRIRQRPPRLPRPRPRPNQRPRP | 0.0738
120 | RRIRWRPPRLPRPRPRPYRNPRP | -0.552
121 | RRIRMRPPRLPRPRPRPMANPRP | 0.356
122 | RRIRPRPPRLPRPRPRPQCEPRP | -0.0437
123 | RRIRPRPPRLPRPRPRPCRPPRP | -0.168
124 | RRIRSRPPRLPRPRPRPYSKPRP | -0.994
125 | RRIRHRPPRLPRPRPRPDDYPRP | -0.00759
